Data published in patent publication US20030064921A1, “Methods and compounds for modulating melanocortin receptor ligand binding and activity” (The Regents of the University of California, priority 1999, published 2003).
Where no end group is shown, it is not given here.

Columns and labels:
[1] = target: MC5R (Homo sapiens, UniProt P33032); assay: Displacement of NDP-MSH at melanocortin receptor (binding)
Method: (§1) Suitable binding assays are well known to those of skill in the art. In a preferred embodiment, the binding assay is a competitive assay that measures the ability of the test composition to displace/compete a reference ligand from a melanocortin receptor. In one preferred approach specific binding of ligands of this invention to cells expressing the MC-3 receptor is determined by competition experiments using labeled (e.g. ^125I-labeled) Nle^4-D-Phe^7-α-MSH (NDP-MSH), as described in Tatro et al. (1990) Cancer Res. 50: 1237-1242).
(§2) The mini-AGRP binding was tested by examining its ability to displace NDP-MSH, a well established high affinity MCR agonist. […] Antagonist activity was then determined using a cAMP assay.

[2] = target: T1, MC3R (Homo sapiens, UniProt P41968); assay: as above
T1 sequence (P41968 whole entry): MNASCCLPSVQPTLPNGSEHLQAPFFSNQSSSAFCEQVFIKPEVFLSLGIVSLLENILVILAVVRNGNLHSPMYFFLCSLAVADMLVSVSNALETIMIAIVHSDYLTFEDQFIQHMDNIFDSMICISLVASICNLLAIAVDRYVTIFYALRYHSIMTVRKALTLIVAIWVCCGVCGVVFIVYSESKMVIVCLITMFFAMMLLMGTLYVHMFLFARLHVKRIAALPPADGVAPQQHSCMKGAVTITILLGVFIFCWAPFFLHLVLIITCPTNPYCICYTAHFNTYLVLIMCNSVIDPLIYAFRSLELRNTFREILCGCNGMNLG
Method: as §1, §2

[3] = target: MC IR (Homo sapiens, UniProt Q01726); assay: as above
Chain of MC IR (Q01726 whole entry): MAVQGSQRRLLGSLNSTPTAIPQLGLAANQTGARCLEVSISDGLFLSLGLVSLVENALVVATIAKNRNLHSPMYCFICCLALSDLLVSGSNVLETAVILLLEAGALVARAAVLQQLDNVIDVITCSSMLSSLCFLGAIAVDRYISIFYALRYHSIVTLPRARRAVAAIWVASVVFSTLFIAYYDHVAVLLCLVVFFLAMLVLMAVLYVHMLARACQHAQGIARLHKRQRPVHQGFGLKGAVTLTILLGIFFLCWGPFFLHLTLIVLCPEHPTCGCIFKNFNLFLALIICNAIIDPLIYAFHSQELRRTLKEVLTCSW
Method: as §1, §2

[4] = target: T2, MC4R (Homo sapiens, UniProt P32245); assay: as above
T2 sequence (P32245 whole entry): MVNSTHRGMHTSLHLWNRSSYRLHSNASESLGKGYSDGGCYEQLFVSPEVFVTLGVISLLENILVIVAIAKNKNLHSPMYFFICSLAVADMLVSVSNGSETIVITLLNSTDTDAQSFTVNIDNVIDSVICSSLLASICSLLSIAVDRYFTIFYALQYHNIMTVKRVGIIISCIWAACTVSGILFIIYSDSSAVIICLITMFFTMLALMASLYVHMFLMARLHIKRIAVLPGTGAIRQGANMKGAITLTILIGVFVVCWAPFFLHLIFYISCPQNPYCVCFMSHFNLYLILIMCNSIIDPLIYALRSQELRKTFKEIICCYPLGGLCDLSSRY
Method: as §1, §2

[5] = target: T1, MC3R; assay: cAMP assay, suppression of α-MSH stimulated cAMP production; type: cell-based
Text: (§3) Preferred assays measure, directly, or indirectly, melanocortin receptor induced changes in intracellular cAMP concentrations. One such assay measures the ability of cAMP to displace (8-^3H) cAMP from a high affinity cAMP binding protein (see Gilman (1979) Proc. Natl. Acad. Sci., USA, 67: 305-312). Briefly, test cells are exposed to the ligands to be screened. Following treatment, the cells are washed twice with phosphate buffered saline and intracellular cAMP extracted by lysing the cells with 1 mL of 60% ethanol. The assay is then run as described by Gilman, supra.).
as §2

[6] = target: T2, MC4R; assay: as above; type: cell-based
Text: as §3, §2

[7] = target: T3, human MC4r (Homo sapiens, UniProt P32245); assay: Inhibition of NDP-MSH stimulated cAMP generation in HEK-293 cells transfected with human MC4r; type: cell-based; conditions: 5.0×10^−6 M
T3 construct: expressed in transfected cells; host or cells: HEK-293
T3 sequence (P32245 whole entry): as above
Method: Control experiments were performed with no MARP. […] Additional samples for HX experiments were prepared by lyophilization of protonated samples followed by reconstitution in 700 μl D2O.
This experiment measured inhibition of NDP-MSH stimulated cAMP generation in cells transfected with MC4r. A control experiment was conducted with no MARP present.

[8] = target: T2, MC4R; conditions: versus agouti; cited from earlier work
[9] = target: T1, MC3R; conditions: versus agouti; cited from earlier work
[10] = target: T4, human melanocortin receptor 4 (human, UniProt P32245 1-332); assay: displacement of NDP-MSH from the receptor
T4 construct: whole, on cells; also called MC4r; MC4R
T4 sequence (P32245 whole entry): as above

Chain of MC5R (P33032 whole entry): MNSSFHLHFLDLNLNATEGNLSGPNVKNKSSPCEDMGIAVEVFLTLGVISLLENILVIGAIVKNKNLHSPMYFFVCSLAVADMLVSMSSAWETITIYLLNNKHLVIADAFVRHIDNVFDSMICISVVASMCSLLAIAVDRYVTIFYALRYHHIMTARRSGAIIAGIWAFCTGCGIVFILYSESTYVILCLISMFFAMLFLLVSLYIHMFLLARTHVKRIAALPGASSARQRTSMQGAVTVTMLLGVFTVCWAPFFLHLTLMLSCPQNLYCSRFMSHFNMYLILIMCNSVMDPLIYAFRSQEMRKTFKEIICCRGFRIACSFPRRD

## Ac-CVRLHESCLGQQVPCCDPAATCYCRFFNAFCYCR-NH2 (disulfide (positions not given here); not fully specified (bridges); printed as Ac-CVRLHESCLGQQVPCCDPAATCYCRFFNAFCYCR-NH2) [mini-AGRP]
[1]
  displacement of NDP-MSH, potency compared with AGRP(87-132): potency equivalent to that of AGRP(87-132)
[2]
  displacement of NDP-MSH, potency compared with AGRP(87-132): potency equivalent to that of AGRP(87-132)
[3]
  displacement of NDP-MSH, potency compared with AGRP(87-132): potency equivalent to that of AGRP(87-132)
[4]
  displacement of NDP-MSH, potency compared with AGRP(87-132): potency equivalent to that of AGRP(87-132)
[5]
  antagonist activity: suppression of α-MSH stimulated cAMP production: potent activity
[6]
  antagonist activity: suppression of α-MSH stimulated cAMP production: potent activity

## MARP with Arg-25 to Ala substitution: MARP single mutant with Arg-25 replaced by Ala in the active loop, chemically synthesized (Ac-CVRLHESCLGQQVPCCDPCATCYCAFFNAFCYCRKLGTAMNPCSRT; disulfide (positions not given here))
[7]
  inhibition of NDP-MSH stimulated cAMP generation: complete loss of inhibitory activity

B1: AGRP: human AGRP is a 132 residue polypeptide (SEQ ID NO:1), natural antagonist of melanocortin receptors 3 and 4 (protein, listed as Homo sapiens)
chain: MLTAAVLSCALLLALPATRGAQMGLAPMEGIRRPDQALLPELPGLGLRAPLKKTTAEQAEEDLLQEAQALAEVLDLQDREPRSSRRCVRLHESCLGQQVPCCDPCATCYCRFFNAFCYCRKLGTAMNPCSRT
[8]
  binding affinity greater than agouti: approximately 100 fold
[9]
  binding affinity greater than agouti: approximately 100 fold

B2: mini-AGRP Ac-CVRLHESCLGQQVPCCDPAATCYCRFFNAFCYCR-NH2 (peptide)
peptide: Ac-CVRLHESCLGQQVPCCDPAATCYCRFFNAFCYCR-NH2
modifications: disulfide (positions not given here); not fully specified (bridges); printed as Ac-CVRLHESCLGQQVPCCDPAATCYCRFFNAFCYCR-NH2; also: four disulfide bonds, pairing not given here
notes: Fmoc solid-phase synthesis, folded under oxidizing conditions
[10]
  binding result: binds
